Source: IntAct's records for PubMed 23481255

B1: ADP-ribose glycohydrolase OARD1 (Homo sapiens), Q9Y530 (parent)
chain: MASSLNEDPEGSRITYVKGDLFACPKTDSLAHCISEDCRMGAGIAVLFKKKFGGVQELLNQQKKSGEVAVLKRDGRYIYYLITKKRASHKPTYENLQKSLEAMKSHCLKNGVTDLSMPRIGCGLDRLQWENVSAMIEEVFEATDIKITVYTL
B2: ADP-ribose glycohydrolase OARD1 (Homo sapiens), Q9Y530 (parent)
chain: B1 chain
partner: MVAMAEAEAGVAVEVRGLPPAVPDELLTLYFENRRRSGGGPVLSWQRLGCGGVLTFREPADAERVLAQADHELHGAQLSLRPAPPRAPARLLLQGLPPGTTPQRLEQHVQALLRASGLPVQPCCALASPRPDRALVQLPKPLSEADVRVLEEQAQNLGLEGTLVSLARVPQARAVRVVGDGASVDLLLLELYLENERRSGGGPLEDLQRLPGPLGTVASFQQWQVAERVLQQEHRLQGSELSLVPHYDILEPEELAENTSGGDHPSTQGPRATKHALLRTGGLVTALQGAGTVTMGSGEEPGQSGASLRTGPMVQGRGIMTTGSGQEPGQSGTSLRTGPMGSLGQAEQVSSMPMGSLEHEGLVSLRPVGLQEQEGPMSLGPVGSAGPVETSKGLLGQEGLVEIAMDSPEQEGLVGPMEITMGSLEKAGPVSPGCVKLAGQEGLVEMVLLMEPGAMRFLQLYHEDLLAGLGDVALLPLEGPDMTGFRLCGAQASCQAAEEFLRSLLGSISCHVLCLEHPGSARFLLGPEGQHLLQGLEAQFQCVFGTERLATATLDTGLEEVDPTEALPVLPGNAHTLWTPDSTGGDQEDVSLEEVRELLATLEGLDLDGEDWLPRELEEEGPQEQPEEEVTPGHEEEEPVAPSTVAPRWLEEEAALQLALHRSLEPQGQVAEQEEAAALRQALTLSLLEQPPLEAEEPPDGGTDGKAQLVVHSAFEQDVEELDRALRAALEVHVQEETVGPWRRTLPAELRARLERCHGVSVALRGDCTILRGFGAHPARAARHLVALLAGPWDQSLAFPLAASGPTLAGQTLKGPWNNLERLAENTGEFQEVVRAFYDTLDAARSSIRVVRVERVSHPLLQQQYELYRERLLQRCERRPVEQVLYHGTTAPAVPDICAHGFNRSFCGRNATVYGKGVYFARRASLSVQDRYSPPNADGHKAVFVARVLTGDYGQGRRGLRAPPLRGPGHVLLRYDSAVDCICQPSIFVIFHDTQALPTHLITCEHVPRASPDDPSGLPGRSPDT

Variants of: B1
Conditions: with parp1_human PARP1, P09874
Sequence of parp1_human PARP1, P09874 (P09874 whole entry): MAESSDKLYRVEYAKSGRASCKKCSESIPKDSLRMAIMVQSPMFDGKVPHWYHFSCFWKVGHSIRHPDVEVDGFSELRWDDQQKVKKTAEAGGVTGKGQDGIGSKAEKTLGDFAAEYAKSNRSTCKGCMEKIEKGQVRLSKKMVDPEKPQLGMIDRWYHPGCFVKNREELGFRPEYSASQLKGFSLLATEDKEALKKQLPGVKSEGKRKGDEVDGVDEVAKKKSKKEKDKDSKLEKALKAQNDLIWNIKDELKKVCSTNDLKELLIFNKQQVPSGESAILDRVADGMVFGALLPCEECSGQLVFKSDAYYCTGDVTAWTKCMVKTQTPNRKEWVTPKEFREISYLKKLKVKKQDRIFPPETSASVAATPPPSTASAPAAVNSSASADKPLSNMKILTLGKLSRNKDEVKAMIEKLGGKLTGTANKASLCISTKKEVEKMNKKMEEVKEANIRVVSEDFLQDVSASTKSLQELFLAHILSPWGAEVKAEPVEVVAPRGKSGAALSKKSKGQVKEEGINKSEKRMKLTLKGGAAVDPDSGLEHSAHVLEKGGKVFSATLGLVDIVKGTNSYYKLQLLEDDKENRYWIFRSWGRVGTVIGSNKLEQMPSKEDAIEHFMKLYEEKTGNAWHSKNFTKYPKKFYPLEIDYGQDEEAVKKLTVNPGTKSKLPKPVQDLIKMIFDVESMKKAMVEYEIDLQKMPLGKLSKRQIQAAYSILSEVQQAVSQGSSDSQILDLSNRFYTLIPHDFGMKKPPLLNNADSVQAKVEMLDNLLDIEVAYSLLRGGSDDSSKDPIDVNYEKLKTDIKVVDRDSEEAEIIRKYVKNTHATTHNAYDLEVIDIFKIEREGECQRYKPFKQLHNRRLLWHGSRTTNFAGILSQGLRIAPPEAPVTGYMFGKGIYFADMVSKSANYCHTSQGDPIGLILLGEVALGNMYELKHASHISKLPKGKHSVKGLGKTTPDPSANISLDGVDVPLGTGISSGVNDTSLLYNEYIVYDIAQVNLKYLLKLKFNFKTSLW

Variant	effect of a mutation on the interaction
MASSLNEDPEGSRITYVKGDLFACPKTDSLAHCISEDCRMGAGIAVLFKKKFGGVQELLNQQKKSGEVAVLKRDGRYIYYLITKKRASHKPTYENLQKSLEAMKSHCLKNGVTDLSMPRIGCGLARLQWENVSAMIEEVFEATDIKITVYTL	disrupting interaction

Variants of: B1
Conditions: with parp1_human PARP1, P09874
Remark: another data set of the same source

Variant	effect of a mutation on the interaction
MASSLNEDPEGSRITYVKGDLFACPKTDSLAHCISEDCRMGAGIAVLFKKKFGGVQELLNQQKKSGEVAVLKRDGRYIYYLITKKRASHKPTYENLQKSLEAMKSHCLKNGVTDLSMPRIGCGLARLQWENVSAMIEEVFEATDIKITVYTL	increasing interaction

Variants of: B1
Conditions: with parp1_human PARP1, P09874
Remark: another data set of the same source

Variant	effect of a mutation on the interaction
MASSLNEDPEGSRITYVKGDLFACPKTDSLAHCISEDCRMGAGIAVLFKKKFGGVQELLNQQKKSGEVAVLKRDGRYIYYLITRKRASHKPTYENLQKSLEAMKSHCLKNGVTDLSMPRIGCGLDRLQWENVSAMIEEVFEATDIKITVYTL	disrupting interaction

Variants of: B1
Conditions: with parp1_human PARP1, P09874
Remark: another data set of the same source

Variant	effect of a mutation on the interaction
MASSLNEDPEGSRITYVKGDLFACPKTDSLAHCISEDCRMGAGIAVLFKKKFGGVQELLNQQKKSGEVAVLKRDGRYIYYLITKKRASHKPTYENLQKSLEAMKSHCLKNGVTDLSMPRIGCELDRLQWENVSAMIEEVFEATDIKITVYTL	disrupting interaction

Variants of: B1
Conditions: with parp1_human PARP1, P09874
Remark: another data set of the same source

Variant	effect of a mutation on the interaction
MASSLNEDPEGSRITYVKGDLFACPKTDSLAHCISEDCRMGAGIAVLFKKKFGGVQELLNQQKKSGEVAVLKRDGRYIYYLITAKRASHKPTYENLQKSLEAMKSHCLKNGVTDLSMPRIGCGLDRLQWENVSAMIEEVFEATDIKITVYTL	disrupting interaction

Variants of: B2
Conditions: with par10_human PARP10, Q53GL7

Variant	effect of a mutation on the interaction
MASSLNEDPEGSRITYVKGDLFACPKTDSLAHCISEDCRMGAGIAVLFKKKFGGVQELLNQQKKSGEVAVLKRDGRYIYYLITAKRASHKPTYENLQKSLEAMKSHCLKNGVTDLSMPRIGCGLDRLQWENVSAMIEEVFEATDIKITVYTL	disrupting interaction

Variants of: B2
Conditions: with par10_human PARP10, Q53GL7
Remark: another data set of the same source

Variant	effect of a mutation on the interaction
MASSLNEDPEGSRITYVKGDLFACPKTDSLAHCISEDCRMGAGIAVLFKKKFGGVQELLNQQKKSGEVAVLKRDGRYIYYLITKKRASHKPTYENLQKSLEAMKSHCLKNGVTDLSMPRIGCGLARLQWENVSAMIEEVFEATDIKITVYTL	disrupting interaction
